Assays:
Test in all cases: fluorescence polarisation
[1] = target: 5'FAM-labeled peptide H3K9me1
[2] = target: 5'FAM-labeled peptide H3 (1-21)
[3] = target: 5'FAM-labeled peptide H3K9me2

B1: GST-ARID1-His (natural protein)
chain: MAGWSMVADEDAVDYSKTPKSLDANRSPESVNPESTGFEKKIKELISLFRPLLDSFLAEFCSADGFLPLPAMTGEGRTVDLFNLFLNVTHKGGFDAVSENGSWDEVVQESGLESYDSASAKLIYVKYLDAFGRWLNRVVAGDTDVSSVELSGISDALVARLNGFLSEVKKKYELRKGRPAKELGAELKWFISKTKRRYDKHHVGKESASNDAVKEFQGSKLAERRLEQIMILESVTQECSSPGKRKRECPLETLKWLSDVAKDPCDPSLGIVPDRSEWVSYGSEEPWKQLLLFRASRTNNDSACEKTWQKVQKMHPCLYDDSAGASYNLRERLSYEDYKRGKTGNGSDIGSSDEEDRPCALVGSKFQAKVPEWTGITPESDSKWLGTRIWPLTKEQTKANLLIERDRIGKGRQDPCGCHNPGSIECVKFHITAKRDKLKLELGPAFYMWCFDVMGECTLQYWTDLELKKIKSLMSSPPSLSPAFIHQAKMILPSKSRGKIVSYFYNVTLLQYRASQSRITPHDIDSDTDQIFLRATENENPAPEANTFQKPALLSPNKKRCR
Kd [1]: 21.2 µM | Kd [2]: 4.73 µM | Kd [3]: 40.5 µM
